# Measurements as given in CN113004416A (HEFEI HANKEMAB BIOTECHNOLOGY CO LTD, dated 2021).
# B1: 抗人4-1BB单克隆抗体 HuB6 (antibody, V domains shown)
# VH: QVQLQESGPGLVKPSETLSITCTVSGSSLTSYGVHWVRQPPGKGLEGLGVIWPGGSTNYNSALMSRLTISKDNSKSQVSLKMSSLTAADTAMYYCARVTGTWYFDVWGQGTTVTVSS
# VL: DIQMTQSPSSLSASLGDRVTISCSASQGISNYLNWYQQKPDGTVKLLIYYTSTLHSGVPSRFSGSGSGTDFTLTISSLQPEDVATYYCQQYSKLPWTFGGGTKLEIK
# notes: Monoclonal antibody; also called Hanke10F4 (专利申请201911105611.1)
# B2: 抗人HER2单克隆抗体 Trastuzumab (Herceptin) (antibody, V domains shown)
# VH: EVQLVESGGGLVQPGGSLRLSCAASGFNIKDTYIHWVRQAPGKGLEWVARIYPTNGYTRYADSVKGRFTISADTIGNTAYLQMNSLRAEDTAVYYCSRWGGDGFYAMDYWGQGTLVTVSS
# VL: DIQMTQSPSSLSASVGDRVTITCRASQDVNTAVAWYQQKPGKAPKLLIYSASFLYSGVPSRFSGSRSGTDFTLTISSLQPEDFATYYCQQHYTTPPTFGGGTKLTVLG
# notes: IgG1, kappa; also called 曲妥珠单抗
# Legend:
# [1] = molecular target: 人4-1BB抗原 (recombinant, purified from 293 cell supernatant by Protein A) (human); assay: ELISA on coated 4-1BB antigen
# [2] = molecular target: 细胞表面4-1BB抗原 (human 4-1BB on CHO-K1-Hu4-1BB stable cells; CD137 on lymphocytes) (human); assay: flow cytometry on CHO-K1-Hu4-1BB cells
# [3] = molecular target: T1, HER2抗原 (human HER2/ErbB2 in lysate of T6-17 cells, coated on ELISA plate) (human, UniProt P04626 23-1255); assay: ELISA on coated T6-17 cell lysate
# T1 construct: The antigen is a crude detergent lysate of cells with high membrane expression of human HER2, not a purified protein
# [4] = molecular target: T2, 细胞表面HER2抗原 (HER2 on SKOV3, N87, MCF-7/HER2, MCF-7, JIMT-1, AC16 cells) (human, UniProt P04626 23-1255); assay: flow cytometry on N87 cells
# T2 construct: whole, on cells
# [5] = molecular target: T2, 细胞表面HER2抗原 (HER2 on SKOV3, N87, …); assay: flow cytometry on JIMT-1 cells
# [6] = molecular target: T2, 细胞表面HER2抗原 (HER2 on SKOV3, N87, …); assay: flow cytometry on MCF-7/HER2 cells
# [7] = molecular target: T2, 细胞表面HER2抗原 (HER2 on SKOV3, N87, …); assay: flow cytometry on AC16 cells
# [8] = molecular target: T2, 细胞表面HER2抗原 (HER2 on SKOV3, N87, …); assay: flow cytometry on SKOV3 cells
# Chain of 细胞表面4-1BB抗原 (human 4-1BB on CHO-K1-Hu4-1BB stable cells; CD137 on lymphocytes) (human) (chain, as listed by the source): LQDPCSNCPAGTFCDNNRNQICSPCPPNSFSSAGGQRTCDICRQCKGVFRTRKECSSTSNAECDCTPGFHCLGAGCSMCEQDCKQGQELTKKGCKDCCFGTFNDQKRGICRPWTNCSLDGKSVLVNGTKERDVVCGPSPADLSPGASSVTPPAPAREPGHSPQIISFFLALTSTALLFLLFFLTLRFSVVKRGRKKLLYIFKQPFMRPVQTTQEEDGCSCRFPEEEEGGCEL
# Chain of 人4-1BB抗原 (recombinant, purified from 293 cell supernatant by Protein A) (human) (chain, as listed by the source): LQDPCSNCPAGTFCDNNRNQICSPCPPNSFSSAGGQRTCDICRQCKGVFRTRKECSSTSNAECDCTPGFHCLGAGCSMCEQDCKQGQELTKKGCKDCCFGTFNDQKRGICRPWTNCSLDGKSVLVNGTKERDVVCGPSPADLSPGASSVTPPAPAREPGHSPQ
Binder,EC50 [1],EC50 [2],EC50 [3],EC50 [4],EC50 [5],EC50 [6],EC50 [7],EC50 [8]
B1,6.34 ng/mL,2.49 µg/mL,,,,,,
B2,,,0.104 µg/mL,2 µg/mL,1.1 µg/mL,1.39 µg/mL,0.851 µg/mL,1.23 µg/mL
